Assay results published in patent US20250222125A1, “Anti-FGFR2b Antibodies, Conjugates and Methods of Use” (BeiGene, Ltd., priority 2024, published 2025).

How the values were obtained:
[1] = system: BaF3_hFGFR2b OE cells; experiment: Ligand-induced proliferation inhibition assay in BaF3_hFGFR2b OE cells; type: cell-based; settings: antibody 10 μg/ml, heparin 5 μg/ml, 72 hours
Protocol: The inhibition activity of antibody on ligand-induced cell proliferation was evaluated in an FGFR2b engineered BaF3 cell line system (BaF3_hFGFR2b OE). BaF3 cells are dependent on interleukin-3 (IL-3) for growth. The BaF3 system allows for testing of kinases and kinase inhibitors. Some protein kinases can render BaF3 cells to be independent of IL-3, whereas kinase inhibitors antagonize this effect. Cells were seeded in 96-well plates at 30,000 cells/well in RPMI-1640 medium containing 10% fetal bovine serum. Anti-FGFR2b antibodies at a concentration of 10 μg/ml were added to the assay plates. Recombinant human FGF7 or FGF10 protein (40 ng/ml) in the presence of heparin (5 μg/ml) was added to the assay plates. The plates were incubated at 37° C., 5% CO2, 95% humidity in an incubator for 72 hours. Following incubation, 50 μl Cell Titer Glo reagent was added to each well and the plates were mixed for 1 min and then incubated at RT for 10 min. Luminescence signals were detected and recorded.
The Ba/F3 system is used to investigate downstream oncogenic signaling pathways and the susceptibility of driver variants to therapeutics. Driver-addicted Ba/F3 cells die when the driver-engaged signaling pathway is inhibited, and this effect can be rescued by re-introduction of […].
FIGS. 6 and 7 show the results of Ba/F3 proliferation assays. […]

[2] = system: phosphorylated FGFR in SNU-16 cells; experiment: Inhibition of FGFR2 signaling in SNU-16 cells (Western blot of pFGFR); type: cell-based; settings: antibody 10 μg/ml, 2 hours
Protocol: Inhibition of the FGFR2 signaling pathway by the humanized antibodies was investigated. SNU-16 cells were grown in RPMI-1640 medium with 10% FBS, collected and washed twice with free medium and then seeded in 12-well plates at 1.5E6 cells/well in serum-free RPMI-1640. The plates were incubated at 37° C., 5% CO2, and 95% humidity in an incubator overnight. Anti-FGFR2b antibodies at a concentration of 10 μg/ml were added to the assay plates. Recombinant human FGF7 or FGF10 protein (10 ng/ml) in the presence of heparin (5 μg/ml) was added to the assay plates. The plates were incubated in a 37° C., 5% CO2, 95% humidity incubator for 2 hours. Following 2 hours incubation, cells were collected and washed twice with cold PBS. NP40 lysis buffer containing 1×PMSF and 1× Protease plus phosphatase inhibitors were added to the cell pellets. The mixture was pipetted up and down to suspend the pellet. The mixture was inverted gently and each placed for 10 minutes on ice, for a total of 30 minutes. The mixture was centrifuged at 12000× rpm for 10 minutes to pellet the cell debris. The supernatant was transferred to a new tube to quantify total protein concentration by BCA Kit. The protein samples were then split and stored at −80° C. for further Western blotting to detect the expression of pFGFR and total FGFR2. […]

[3] = system: 293T blank cells; experiment: FACS non-specific binding, parental 293T blank cells (Example 4)
Protocol: (§1) The binding affinity and specificity of purified anti-FGFR2b antibodies were determined by ELISA and FACS. […] After incubation and washing, the plates were developed with HRP substrate and absorbance was measured. […] After washing twice with FACS buffer, diluted Alexa Fluor 647 goat anti-human IgG secondary antibody was added and incubated with cells for 30 minutes at 4° C. in the dark. After washing twice with FACS buffer, cells were resuspended with FACS buffer and read using a Becton Dickinson LSR FortessaTM cell analyzer. Non-specific binding of these antibodies was evaluated by FACS binding against parental 293T blank cells. Titration curves were generated using a sigmoidal dose-response of nonlinear fit from GraphPadTM Software by Dotmatics.

[4] = biological target: T1, soluble human FGFR2b proteins (Homo sapiens, UniProt P21802); experiment: SPR binding kinetics (Biacore 8K, Example 5); settings: room temperature
T1 construct: soluble human FGFR2b proteins (his tag, in-house generated); His tag; made in house
T1 sequence (P21802 22-378 isoform P21802-3 limits assumed): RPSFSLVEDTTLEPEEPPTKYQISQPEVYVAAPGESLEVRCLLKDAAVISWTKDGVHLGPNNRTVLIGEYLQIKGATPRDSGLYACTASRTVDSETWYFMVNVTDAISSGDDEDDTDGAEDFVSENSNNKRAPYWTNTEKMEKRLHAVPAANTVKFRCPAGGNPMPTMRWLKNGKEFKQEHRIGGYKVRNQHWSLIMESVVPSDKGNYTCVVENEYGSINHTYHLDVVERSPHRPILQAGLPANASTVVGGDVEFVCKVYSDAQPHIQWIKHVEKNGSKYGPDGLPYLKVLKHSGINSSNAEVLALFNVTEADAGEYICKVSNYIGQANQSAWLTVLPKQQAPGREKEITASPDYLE
Protocol: The binding affinity and kinetics of purified anti-FGFR2b antibodies were determined by surface plasmon resonance (Biacore 8K, GE Life Sciences) at room temperature. Briefly, mouse anti-human IgG Fc antibody was immobilized via amine coupling onto a activated CM5 biosensor chip (Cat. No. BR100530, GE Life Sciences). Purified monoclonal antibody candidates were flowed over the chip surface and captured by anti-human IgG antibody. Then a serial dilution of soluble human FGFR2b proteins (his tag, in-house generated) were injected over the antibodies captured surface and changes in surface plasmon resonance signals were analyzed to calculate the association rates (kon) and dissociation rates (koff) by using the one-to-one Langmuir binding model (BIA Evaluation Software, GE Life Sciences). The equilibrium dissociation constant (KD) was calculated as the ratio koff/kon.

[5] = biological target: T2, Murine FGFR2b OE cells (Mus musculus, UniProt P21803); experiment: FACS cellular binding, murine FGFR2b OE cells (Example 4)
T2 construct: expressed in transfected cells; host or cells: 293T
T2 sequence (P21803 22-707 isoform P21803-2 limits assumed): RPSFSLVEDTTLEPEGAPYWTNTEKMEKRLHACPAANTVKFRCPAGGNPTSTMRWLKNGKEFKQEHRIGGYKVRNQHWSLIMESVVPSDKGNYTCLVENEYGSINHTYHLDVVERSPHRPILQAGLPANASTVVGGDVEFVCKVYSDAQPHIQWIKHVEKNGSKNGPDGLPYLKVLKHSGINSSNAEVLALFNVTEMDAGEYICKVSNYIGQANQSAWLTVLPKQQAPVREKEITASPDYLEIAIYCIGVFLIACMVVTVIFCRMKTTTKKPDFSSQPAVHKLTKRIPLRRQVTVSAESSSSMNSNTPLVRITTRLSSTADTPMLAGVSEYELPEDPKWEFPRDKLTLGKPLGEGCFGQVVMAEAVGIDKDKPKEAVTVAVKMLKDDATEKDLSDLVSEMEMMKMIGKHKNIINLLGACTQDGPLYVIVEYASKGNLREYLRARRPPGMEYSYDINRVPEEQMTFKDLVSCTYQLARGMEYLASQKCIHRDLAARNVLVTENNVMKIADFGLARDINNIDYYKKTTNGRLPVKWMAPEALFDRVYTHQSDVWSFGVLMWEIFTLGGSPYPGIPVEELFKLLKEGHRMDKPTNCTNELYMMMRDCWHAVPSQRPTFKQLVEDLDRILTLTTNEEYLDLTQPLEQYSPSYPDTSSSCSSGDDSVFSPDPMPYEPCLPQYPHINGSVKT
Protocol: as §1

[6] = biological target: Human FGFR2c OE cells (Homo sapiens, UniProt P21802); experiment: FACS cellular binding, human FGFR2c OE cells (Example 4)
Human FGFR2c OE cells, sequence (P21802 22-821): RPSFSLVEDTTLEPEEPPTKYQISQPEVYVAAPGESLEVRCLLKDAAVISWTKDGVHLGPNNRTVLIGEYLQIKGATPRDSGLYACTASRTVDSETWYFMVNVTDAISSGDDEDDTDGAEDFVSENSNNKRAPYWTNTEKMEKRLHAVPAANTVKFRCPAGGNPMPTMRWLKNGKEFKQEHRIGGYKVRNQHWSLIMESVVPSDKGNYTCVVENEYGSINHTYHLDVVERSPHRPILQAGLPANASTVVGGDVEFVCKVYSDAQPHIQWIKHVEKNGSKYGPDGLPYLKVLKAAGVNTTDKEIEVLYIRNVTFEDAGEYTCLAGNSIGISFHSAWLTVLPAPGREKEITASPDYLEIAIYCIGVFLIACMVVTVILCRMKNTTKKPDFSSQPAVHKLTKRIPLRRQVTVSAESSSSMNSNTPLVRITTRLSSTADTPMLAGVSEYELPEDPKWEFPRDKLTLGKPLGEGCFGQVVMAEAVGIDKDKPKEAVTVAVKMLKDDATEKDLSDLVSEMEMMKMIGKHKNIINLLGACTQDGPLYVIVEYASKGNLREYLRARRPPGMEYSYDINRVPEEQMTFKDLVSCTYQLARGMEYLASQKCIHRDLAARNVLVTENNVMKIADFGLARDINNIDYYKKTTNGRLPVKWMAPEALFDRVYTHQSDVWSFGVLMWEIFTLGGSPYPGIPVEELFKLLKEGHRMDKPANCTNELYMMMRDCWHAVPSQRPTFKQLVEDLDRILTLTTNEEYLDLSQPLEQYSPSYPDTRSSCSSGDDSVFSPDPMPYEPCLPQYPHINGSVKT
Protocol: as §1

[7] = patients; cited from earlier work
[8] = system: co-inoculated HSC-39+SNU-5 xenografts; experiment: Co-inoculated HSC-39+SNU-5 gastric cancer xenografts; type: in vivo, BALB/c nude mice; settings: HSC-39:SNU-5 ratios of 2:1 and 5:1, single dose 10 mpk i.v.
Protocol: HSC-39 and SNU-5 were cultured in Dulbecco's modified Eagle's medium (DMEM), supplemented with 10% (v/v) fetal bovine serum, 100 U/ml penicillin, and 100 μg/mL streptomycin. Cells were incubated in a humidified incubator with 5% CO2 at 37° C. On the day of implantation, cells were collected and washed with serum-free medium. Six- to eight-week-old female BALB/c nude mice were purchased and housed in ventilated cages, given food and water ad libitum, and allowed to acclimate for approximately 1 week prior to inoculation. A total of 5×10^6 HSC-39 and SNU-5 cancer cells mixed with matrigel at a ratio of 2:1 or 5:1 were implanted subcutaneously into the mouse flank. […] Tumor volumes were measured twice weekly. Data is presented as mean tumor volume ±standard error of the mean (SEM). In the vehicle group at a 2:1 HSC-39:SNU-5 ratio, there were ˜50% FGFR2b positive cells in the tumor at the starting point with ˜40% at the end point. In the vehicle group at a 5:1 HSC-39:SNU-5 ratio, there were ˜60% FGFR2b positive cells in the tumor at the starting point with ˜20% at the end point.

[9] = biological target: T3, Human FGFR2b OE cells (Homo sapiens, UniProt P21802); experiment: FACS cellular binding, human FGFR2b OE cells (Example 4)
T3 construct: expressed in transfected cells; host or cells: 293T
T3 sequence (P21802 22-822 isoform P21802-3 limits assumed): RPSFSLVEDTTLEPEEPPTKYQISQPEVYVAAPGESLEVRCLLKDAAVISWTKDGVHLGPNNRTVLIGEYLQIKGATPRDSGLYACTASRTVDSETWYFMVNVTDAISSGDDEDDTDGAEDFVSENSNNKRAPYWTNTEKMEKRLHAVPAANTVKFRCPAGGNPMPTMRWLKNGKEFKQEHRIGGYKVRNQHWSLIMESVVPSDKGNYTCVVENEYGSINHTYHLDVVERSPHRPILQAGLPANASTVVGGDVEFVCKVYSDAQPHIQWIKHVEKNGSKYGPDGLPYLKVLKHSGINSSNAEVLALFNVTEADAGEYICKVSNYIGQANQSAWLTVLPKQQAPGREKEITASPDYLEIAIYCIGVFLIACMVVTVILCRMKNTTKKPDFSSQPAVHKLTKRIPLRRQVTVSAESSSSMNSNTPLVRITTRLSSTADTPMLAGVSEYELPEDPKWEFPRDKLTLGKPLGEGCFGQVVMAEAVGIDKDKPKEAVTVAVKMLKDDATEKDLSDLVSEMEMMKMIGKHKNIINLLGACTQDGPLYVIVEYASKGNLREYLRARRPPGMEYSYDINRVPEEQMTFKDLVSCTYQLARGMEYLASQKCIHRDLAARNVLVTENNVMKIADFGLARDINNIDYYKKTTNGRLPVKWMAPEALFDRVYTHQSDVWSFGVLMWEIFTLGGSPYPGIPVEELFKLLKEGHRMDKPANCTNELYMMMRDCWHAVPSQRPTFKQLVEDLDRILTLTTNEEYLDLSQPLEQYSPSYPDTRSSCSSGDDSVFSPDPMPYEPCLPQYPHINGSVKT
Protocol: as §1

[10] = biological target: Human FGFR2c (Homo sapiens, UniProt P21802); experiment: ELISA protein binding to human FGFR2c (Example 4); settings: coated protein
Human FGFR2c, sequence (P21802 22-821): as the sequence (P21802 22-821) above
Protocol: as §1

[11] = biological target: human FGFR2b (Homo sapiens, UniProt P21802); experiment: ELISA protein binding to human FGFR2b (Example 4); settings: coated protein
human FGFR2b, sequence (P21802 22-822 isoform P21802-3 limits assumed): as the sequence (P21802 22-822 isoform P21802-3 limits assumed) above
Protocol: as §1

For “BGA1421: comparator antibody bemarituzumab, un-conjugated; HC SEQ ID NO: 35, LC SEQ ID NO: 36 [reference compound]”, the “inhibition of FGF7-induced BaF3_hFGFR2b cell proliferation” value ([1]; FGF7 40 ng/ml) was “potently inhibit”, the “inhibition of FGF10-induced BaF3_hFGFR2b cell proliferation” value ([1]; FGF10 40 ng/ml) was “potently inhibit” and the “FGF7-induced FGFR phosphorylation” value ([2]; FGF7 10 ng/ml) was “down-regulation of phosphorylated FGFR”. For the same substance, the “FGF10-induced FGFR phosphorylation” value ([2]; FGF10 10 ng/ml) was “down-regulation of phosphorylated FGFR”, the “293T blank cells binding Emax” value [3] was 18 MFI and the ka ([4]; antibody captured) was 104000 M⁻¹ s⁻¹. It also gave a kd ([4]; antibody captured) of 0.00232 s⁻¹, a Kd ([4]; koff/kon) of 22.2 nM and an EC50 [5] of 0.81 nM. The “Human FGFR2c OE cells binding Emax” value [6] was 40 MFI, the “treatment discontinuation rate caused by corneal toxicity” value [7] was 26% and the tumor growth [8] was “inhibited tumor growth but was less potent”. The EC50 [9] was 0.48 nM, the “Human FGFR2c binding Emax(OD450)” value [10] was 0.09 OD450 and the EC50 [11] was 0.61 nM. The “Human FGFR2b binding Emax(OD450)” value [11] was 2.62 OD450.
